The values below come from patent US20210355194A1.

Details in all cases: remark: other sources report otherwise
The target in experiment [1] is T1, CV S-protein construct 6 trimer TP31001F (SARS-CoV-2), P0DTC2. Kind of experiment: SPR. Background: SPR reads the build-up and loss of mass on a sensor chip optically.
Experiment [2] has as its target T1, CV S-protein construct 6 trimer …. Kind of experiment: SPR. This is another data set of the same source.
In experiment [3] the target is SARS-COV2-S1 RBD (mouse IgG2Fc tag) (SARS-CoV-2), P0DTC2. Kind of experiment: FACS, blocks S1 RBD-mFc binding to ACE2 on Vero E6. On the technique in general: In flow cytometry, cells or beads pass a laser one at a time.
Experiment [4] has the same target. The experiment is described as follows: column not explained; likely FACS, S1 RBD on Vero E6.
The target is the same in experiment [5]. Kind of experiment: FACS, S1 RBD-mFc on Vero E6 (ACE2).

B1: variant 6-9 (Fc fusion)
VHH: EVQLVESGGGLVQPGGSLRLSCAASGFTFDYYAMGWFRQAPGKEREFVSAIDSEGRTSYADSVKGRFTISADNSKNTAYLQMNSLKPEDTAVYYCARWGPFDIWGQGTLVTVSS
Turning to B1, the Kd in experiment [1] and in experiment [2] was 0.9 nM in each case.

B2: variant 6-63 (Fc fusion)
VHH: EVQLVESGGGLVQPGGSLRLSCAASGQTFNMGWFRQAPGKEREFVAAIGSGGSTSYADSVKGRFTISADNSKNTAYLQMNSLKPEDTAVYYCWRLGNDYFDYWGQGTLVTVSS
For the molecule B2, in experiment [3], the IC50 – broadly, the point on the concentration scale where inhibition reaches its midpoint – is 0.74 nM. In experiment [4], this molecule yielded an MFI Fold Decrease of 7.76 fold. Moreover, the Kd in experiment [1] and in experiment [2] was 0.3 nM each time. The molecule further had a Competition Factor in experiment [5] of 7.76.
